Kd data for 1 substance are collected here from paper doi:10.1101/2025.08.01.667454.

This experiment concerns the target PU.1[60–100]^TMR (human) (UniProt P17947). The experiment is described as follows: fluorescence polarisation. Background: In fluorescence polarisation assays a small probe gives low polarisation when free and higher when bound to something large.

For orientation: Kd means the concentration at which binding is half-saturated. Regarding BAF60A^SWIB (domain or fragment), the Kd was > 50 µM.
